Reference: the supplement of paper PMC11316812
± gives the standard deviation of the averaged measurements.

Experiments:
MCF7 = assay: percentage of EdU-negative (G0-arrested) nuclei per well, 72 h; higher = more G0 arrest; settings: reference: sequence is the full UniProt precursor, the tested protein was the secreted form or ectodomain
hTERT-HMEC = assay: as above; settings: reference: sequence is the full UniProt precursor, the tested protein was the secreted form or ectodomain
[1] = protein concentration 0.0225 µM
[2] = protein concentration 0.0070625 µM
[3] = protein concentration 0.070625 µM
[4] = protein concentration 0.02025 µM
[5] = protein concentration 0.2025 µM
[6] = protein concentration 0.03125 µM
[7] = protein concentration 0.3125 µM
[8] = protein concentration 0.0257143 µM
[9] = protein concentration 0.257143 µM
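Also: secreted proteins added to cultured cells, EdU pulse at the end, nuclei found by Hoechst imaging, EdU status from nuclear versus surrounding ring intensity ratio, PBS as neutral control.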

“MEPQLGPEAAALRPGWLALLLWVSALSCSFSLPASSLSSLVPQVRTSYNFGRTFLGLDKCNACIGTSICKKFFKEEIRSDNWLASHLGLPPDSLLSYPANYSDDSKIWRPVEIFRLVSKYQNEISDRRICASASAPKTCSIERVLRKTERFQKWLQAKRLTPDLVQGLASPLLRCPSQRLLDRVVRRYAEVADAGSIFMDHFTDRDKLRLLYTLAVNSHPILLQIFPGAEGWPLPKYLGSCGRFLVSTSTRPLQEFYDAPPDQAADLAYQLLGVLESLRSNDLNYFFYFTHIDAGMFGVFNNGHLFIRDASAVGVIDKQEGSQEANRAGENKDIFSCLVSGCQAQLPSCESISEKQSLVLVCQKLLPRLLQGRFPSPVQDDIDSILVQCGDSIRPDPEVLGAASQLKDILRPLRTCDSRFAYRYPDCKYNDKF [Q9H7Y0]” was tested, and the “percentage of EdU-negative” value (MCF7; [1]) was 25.8 ± 2.1%, the “percentage of EdU-negative” value (MCF7; protein concentration 0.225 µM) was 25.3 ± 2% and the “percentage of EdU-negative” value (hTERT-HMEC; [1]) was 5.59 ± 0.064%. For the same sequence, the “percentage of EdU-negative” value (hTERT-HMEC; protein concentration 0.225 µM) was 5.31 ± 0.38%.
For “MGAARLLPNLTLCLQLLILCCQTQGENHPSPNFNQYVRDQGAMTDQLSRRQIREYQLYSRTSGKHVQVTGRRISATAEDGNKFAKLIVETDTFGSRVRIKGAESEKYICMNKRGKLIGKPSGKSKDCVFTEIVLENNYTAFQNARHEGWFMAFTRQGRPRQASRSRQNQREAHFIKRLYQGQLPFPNHAEKQKQFEFVGSAPTRRTKRTRRPQPLT”, the “percentage of EdU-negative” value (MCF7; [2]) was 26.1 ± 0.65%, the “percentage of EdU-negative” value (MCF7; [3]) was 25.6 ± 3.5% and the “percentage of EdU-negative” value (hTERT-HMEC; [2]) was 4.842 ± 0.02%. The “percentage of EdU-negative” value (hTERT-HMEC; [3]) was 5.5 ± 0.25%.
With “MKPATGLWVWVSLLVAAGTVQPSDSQSVCAGTENKLSSLSDLEQQYRALRKYYENCEVVMGNLEITSIEHNRDLSFLRSVREVTGYVLVALNQFRYLPLENLRIIRGTKLYEDRYALAIFLNYRKDGNFGLQELGLKNLTEILNGGVYVDQNKFLCYADTIHWQDIVRNPWPSNLTLVSTNGSSGCGRCHKSCTGRCWGPTENHCQTLTRTVCAEQCDGRCYGPYVSDCCHRECAGGCSGPKDTDCFACMNFNDSGACVTQCPQTFVYNPTTFQLEHNFNAKYTYGAFCVKKCPHNFVVDSSSCVRACPSSKMEVEENGIKMCKPCTDICPKACDGIGTGSLMSAQTVDSSNIDKFINCTKINGNLIFLVTGIHGDPYNAIEAIDPEKLNVFRTVREITGFLNIQSWPPNMTDFSVFSNLVTIGGRVLYSGLSLLILKQQGITSLQFQSLKEISAGNIYITDNSNLCYYHTINWTTLFSTINQRIVIRDNRKAENCTAEGMVCNHLCSSDGCWGPGPDQCLSCRRFSRGRICIESCNLYDGEFREFENGSICVECDPQCEKMEDGLLTCHGPGPDNCTKCSHFKDGPNCVEKCPDGLQGANSFIFKYADPDRECHPCHPNCTQGCNGPTSHDCIYYPWTGHSTLPQHARTPLIAAGVIGGLFILVIVGLTFAVYVRRKSIKKKRALRRFLETELVEPLTPSGTAPNQAQLRILKETELKRVKVLGSGAFGTVYKGIWVPEGETVKIPVAIKILNETTGPKANVEFMDEALIMASMDHPHLVRLLGVCLSPTIQLVTQLMPHGCLLEYVHEHKDNIGSQLLLNWCVQIAKGMMYLEERRLVHRDLAARNVLVKSPNHVKITDFGLARLLEGDEKEYNADGGKMPIKWMALECIHYRKFTHQSDVWSYGVTIWELMTFGGKPYDGIPTREIPDLLEKGERLPQPPICTIDVYMVMVKCWMIDADSRPKFKELAAEFSRMARDPQRYLVIQGDDRMKLPSPNDSKFFQNLLDEEDLEDMMDAEEYLVPQAFNIPPPIYTSRARIDSNRSEIGHSPPPAYTPMSGNQFVYRDGGFAAEQGVSVPYRAPTSTIPEAPVAQGATAEIFDDSCCNGTLRKPVAPHVQEDSSTQRYSADPTVFAPERSPRGELDEEGYMTPMRDKPKQEYLNPVEENPFVSRRKNGDLQALDNPEYHNASNGPPKAEDEYVNEPLYLNTFANTLGKAEYLKNNILSMPEKAKKAFDNPDYWNHSLPPRSTLQHPDYLQEYSTKYFYKQNGRIRPIVAENPEYLSEFSLKPGTVLPPPPYRHRNTVV” the “percentage of EdU-negative” value (MCF7; [4]) was 26.2 ± 1.2%, the “percentage of EdU-negative” value (MCF7; [5]) was 25.4 ± 1.2% and the “percentage of EdU-negative” value (hTERT-HMEC; [4]) was 4.75 ± 0.55%. For the same sequence, the “percentage of EdU-negative” value (hTERT-HMEC; [5]) was 7.8 ± 0.72%.
For “MKFTIVFAGLLGVFLAPALANYNINVNDDNNNAGSGQQSVSVNNEHNVANVDNNNGWDSWNSIWDYGNGFAATRLFQKKTCIVHKMNKEVMPSIQSLDALVKEKKLQGKGPGGPPPKGLMYSVNPNKVDDLSKFGKNIANMCRGIPTYMAEEMQEASLFFYSGTCYTTSVLWIVDISFCGDTVEN [Q9NS71]”, the “percentage of EdU-negative” value (MCF7; [6]) was 23 ± 2.2%, the “percentage of EdU-negative” value (MCF7; [7]) was 25.4 ± 3.5% and the “percentage of EdU-negative” value (hTERT-HMEC; [6]) was 4.8 ± 0.55%. The “percentage of EdU-negative” value (hTERT-HMEC; [7]) was 5.56 ± 0.6%.
In the case of “MAKDFQDIQQLSSEENDHPFHQGEGPGTRRLNPRRGNPFLKGPPPAQPLAQRLCSMVCFSLLALSFNILLLVVICVTGSQSEGHGGAQLQAELRSLKEAFSNFSSSTLTEVQAISTHGGSVGDKITSLGAKLEKQQQDLKADHDALLFHLKHFPVDLRFVACQMELLHSNGSQRTCCPVNWVEHQGSCYWFSHSGKAWAEAEKYCQLENAHLVVINSWEEQKFIVQHTNPFNTWIGLTDSDGSWKWVDGTDYRHNYKNWAVTQPDNWHGHELGGSEDCVEVQPDGRWNDDFCLQVYRWVCEKRRNATGEVA”, the “percentage of EdU-negative” value (MCF7; [8]) is reported as 27 ± 1.8%, the “percentage of EdU-negative” value (MCF7; [9]) is reported as 25.3 ± 2.7% and the “percentage of EdU-negative” value (hTERT-HMEC; [8]) is reported as 4.62 ± 0.061%. The “percentage of EdU-negative” value (hTERT-HMEC; [9]) was 5.93 ± 0.22%.
“MRLPWELLVLQSFILCLADDSTLHGPIFIQEPSPVMFPLDSEEKKVKLNCEVKGNPKPHIRWKLNGTDVDTGMDFRYSVVEGSLLINNPNKTQDAGTYQCTATNSFGTIVSREAKLQFAYLDNFKTRTRSTVSVRRGQGMVLLCGPPPHSGELSYAWIFNEYPSYQDNRRFVSQETGNLYIAKVEKSDVGNYTCVVTNTVTNHKVLGPPTPLILRNDGVMGEYEPKIEVQFPETVPTAKGATVKLECFALGNPVPTIIWRRADGKPIARKARRHKSNGILEIPNFQQEDAGLYECVAENSRGKNVARGQLTFYAQPNWIQKINDIHVAMEENVFWECKANGRPKPTYKWLKNGEPLLTRDRIQIEQGTLNITIVNLSDAGMYQCLAENKHGVIFSNAELSVIAVGPDFSRTLLKRVTLVKVGGEVVIECKPKASPKPVYTWKKGRDILKENERITISEDGNLRIINVTKSDAGSYTCIATNHFGTASSTGNLVVKDPTRVMVPPSSMDVTVGESIVLPCQVTHDHSLDIVFTWSFNGHLIDFDRDGDHFERVGGQDSAGDLMIRNIQLKHAGKYVCMVQTSVDRLSAAADLIVRGPPGPPEAVTIDEITDTTAQLSWRPGPDNHSPITMYVIQARTPFSVGWQAVSTVPELIDGKTFTATVVGLNPWVEYEFRTVAANVIGIGEPSRPSEKRRTEEALPEVTPANVSGGGGSKSELVITWETVPEELQNGRGFGYVVAFRPYGKMIWMLTVLASADASRYVFRNESVHPFSPFEVKVGVFNNKGEGPFSPTTVVYSAEEEPTKPPASIFARSLSATDIEVFWASPLEKNRGRIQGYEVKYWRHEDKEENARKIRTVGNQTSTKITNLKGSVLYHLAVKAYNSAGTGPSSATVNVTTRKPPPSQPPGNIIWNSSDSKIILNWDQVKALDNESEVKGYKVLYRWNRQSSTSVIETNKTSVELSLPFDEDYIIEIKPFSDGGDGSSSEQIRIPKISNAYARGSGASTSNACTLSAISTIMISLTARSSL [Q8IWV2]” was tested, and the “percentage of EdU-negative” value (MCF7; protein concentration 0.018 µM) was 25.6 ± 0.8%, the “percentage of EdU-negative” value (MCF7; protein concentration 0.18 µM) was 27 ± 1.7% and the “percentage of EdU-negative” value (hTERT-HMEC; protein concentration 0.018 µM) was 5.06 ± 0.29%. For the same sequence, the “percentage of EdU-negative” value (hTERT-HMEC; protein concentration 0.18 µM) was 8.55 ± 0.98%.
